Source: publication PMC5346439
Values belong to the substance of their own block, whether it stands above or below them.

Tests used:
[1] = biological target: human MC3 (melanocortin receptor 3) (human) (UniProt P41968)
[2] = biological target: human MC5 (melanocortin receptor 5) (human) (UniProt P33032)
[3] = biological target: mouse MC3 (melanocortin receptor 3) (mouse) (UniProt P33033)
[4] = biological target: human MC4 (melanocortin receptor 4) (human) (UniProt P32245)
Chain of UniProt P32245 (P32245 whole entry): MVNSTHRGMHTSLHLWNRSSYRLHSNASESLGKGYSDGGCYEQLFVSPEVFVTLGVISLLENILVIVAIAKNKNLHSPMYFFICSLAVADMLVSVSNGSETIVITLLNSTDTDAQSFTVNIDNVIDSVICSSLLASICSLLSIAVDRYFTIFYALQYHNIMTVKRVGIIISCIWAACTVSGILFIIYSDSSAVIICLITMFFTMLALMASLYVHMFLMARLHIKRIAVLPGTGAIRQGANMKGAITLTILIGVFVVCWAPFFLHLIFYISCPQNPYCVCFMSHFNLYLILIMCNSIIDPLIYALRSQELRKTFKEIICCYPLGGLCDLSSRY

Chain of UniProt P41968 (P41968 whole entry): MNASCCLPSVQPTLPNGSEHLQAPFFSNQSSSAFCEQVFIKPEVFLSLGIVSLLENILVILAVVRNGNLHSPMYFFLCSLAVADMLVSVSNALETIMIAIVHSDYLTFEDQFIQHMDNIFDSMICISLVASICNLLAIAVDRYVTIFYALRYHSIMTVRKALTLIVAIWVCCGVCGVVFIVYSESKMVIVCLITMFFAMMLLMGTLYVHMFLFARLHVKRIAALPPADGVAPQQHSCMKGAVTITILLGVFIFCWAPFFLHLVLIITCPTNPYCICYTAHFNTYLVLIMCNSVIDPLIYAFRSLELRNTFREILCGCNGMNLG
Chain of UniProt P33032 (P33032 whole entry): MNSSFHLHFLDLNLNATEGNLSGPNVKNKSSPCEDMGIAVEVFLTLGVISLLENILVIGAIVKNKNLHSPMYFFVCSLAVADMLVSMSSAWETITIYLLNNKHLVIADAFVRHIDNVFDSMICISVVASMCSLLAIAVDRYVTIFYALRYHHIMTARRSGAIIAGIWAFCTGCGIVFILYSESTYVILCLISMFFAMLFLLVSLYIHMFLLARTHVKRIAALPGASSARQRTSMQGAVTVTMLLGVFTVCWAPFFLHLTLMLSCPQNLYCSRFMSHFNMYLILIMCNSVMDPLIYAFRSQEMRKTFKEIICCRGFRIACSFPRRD
Chain of UniProt P33033 (P33033 whole entry): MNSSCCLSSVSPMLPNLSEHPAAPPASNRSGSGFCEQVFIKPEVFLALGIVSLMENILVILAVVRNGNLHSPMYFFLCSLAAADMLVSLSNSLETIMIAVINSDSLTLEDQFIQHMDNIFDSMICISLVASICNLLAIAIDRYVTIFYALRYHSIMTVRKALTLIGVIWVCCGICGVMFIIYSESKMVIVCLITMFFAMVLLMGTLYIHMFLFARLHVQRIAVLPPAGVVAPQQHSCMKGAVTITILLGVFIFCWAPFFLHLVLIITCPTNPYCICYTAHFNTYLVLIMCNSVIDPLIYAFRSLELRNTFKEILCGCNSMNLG

pEC50 of cAMP production (HTRF cAMP assay) in receptor-transfected cells, with 0-30 μM fenoprofen; 8.19 at 0 μM, highest at 30 μM [1]: 8.87 pEC50 | pEC50 of cAMP production (HTRF cAMP assay) in receptor-transfected cells, with 0-30 μM fenoprofen; 6.78 at 0 μM, highest at 30 μM [2]: 7.29 pEC50 | pEC50 of cAMP production (HTRF cAMP assay) in receptor-transfected cells, with 0-30 μM fenoprofen; 8.69 at 0 μM, highest at 30 μM [3]: 9.03 pEC50 | pEC50 of cAMP production (HTRF cAMP assay) in receptor-transfected cells, with 0-30 μM fenoprofen; 8.76 at 0 μM, highest at 30 μM [4]: 9.25 pEC50
Substance: ACTH (peptide)

pEC50 of cAMP production (HTRF cAMP assay) in receptor-transfected cells, with 0-30 μM fenoprofen; 8.80 at 0 μM, highest at 30 μM [1]: 9.35 pEC50 | pEC50 of cAMP production (HTRF cAMP assay) in receptor-transfected cells, with 0-30 μM fenoprofen; 6.13 at 0 μM, highest at 30 μM [2]: 6.8 pEC50 | pEC50 of cAMP production (HTRF cAMP assay) in receptor-transfected cells, with 0-30 μM fenoprofen; 9.19 at 0 μM, highest at 10 μM [3]: 9.3 pEC50 | pEC50 of cAMP production (HTRF cAMP assay) in receptor-transfected cells, with 0-30 μM fenoprofen; 7.33 at 0 μM, highest at 30 μM [4]: 7.72 pEC50
Substance: Lys-γ3MSH (peptide)

pEC50 of cAMP production (HTRF cAMP assay) in receptor-transfected cells, with 0-30 μM fenoprofen; 9.40 at 0 μM, highest at 30 μM [1]: 9.66 pEC50 | pEC50 of cAMP production (HTRF cAMP assay) in receptor-transfected cells, with 0-30 μM fenoprofen; 8.98 at 0 μM, highest at 10 μM [2]: 9.06 pEC50 | pEC50 of cAMP production (HTRF cAMP assay) in receptor-transfected cells, with 0-30 μM fenoprofen; 9.78 at 0 μM, highest at 3 μM [3]: 9.86 pEC50 | pEC50 of cAMP production (HTRF cAMP assay) in receptor-transfected cells, with 0-30 μM fenoprofen; highest at 0 μM, 10.38 at 30 μM [4]: 10.5 pEC50
Substance: NDP-αMSH (peptide)

pEC50 of cAMP production (HTRF cAMP assay) in receptor-transfected cells, with 0-30 μM fenoprofen; 7.58 at 0 μM, highest at 30 μM [1]: 8.3 pEC50 | pEC50 of cAMP production (HTRF cAMP assay) in receptor-transfected cells, with 0-30 μM fenoprofen; 6.64 at 0 μM, highest at 30 μM [2]: 7.22 pEC50 | pEC50 of cAMP production (HTRF cAMP assay) in receptor-transfected cells, with 0-30 μM fenoprofen; 8.33 at 0 μM, highest at 30 μM [3]: 8.86 pEC50 | pEC50 of cAMP production (HTRF cAMP assay) in receptor-transfected cells, with 0-30 μM fenoprofen; 8.38 at 0 μM, highest at 30 μM [4]: 9.11 pEC50
Substance: αMSH (melanocyte-stimulating hormone) (peptide)
